The target in assay [1] is T1, human Tweak-Fc (human, UniProt O43508 106-249, limits assumed).
T1 construct: not shown: Fc part
T1 sequence: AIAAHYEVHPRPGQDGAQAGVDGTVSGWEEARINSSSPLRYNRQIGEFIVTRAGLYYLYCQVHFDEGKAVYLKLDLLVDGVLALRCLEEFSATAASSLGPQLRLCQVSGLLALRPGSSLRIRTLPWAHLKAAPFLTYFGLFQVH
Nature of the assay: SPR (BIAcore T100), TWEAK ligand (Tweak-Fc) amine-coupled on C1 chip, antibody as analyte, 25 C, 1:1 model. The method, then: (§1) Around 100 resonance units (RU) of TWEAK was immobilized on the C1 chip surface at pH 5.0 using an amine coupling kit supplied by the GE Healthcare. The sample and system buffer was PBS-T (10 mM phosphate buffered saline including 0.05% Tween20) pH 7.4. Association was measured by injection the bispecific antibody in various concentrations in solution for 3 min at a flow of 30 μl/min starting with 50 nM in 1:1 dilutions. The dissociation phase was monitored for up to 10 min and triggered by switching from the sample solution to running buffer. The surface was regenerated by three times 30 sec. washing with a 3M MgCl2 solution at a flow rate of 30 μl/min. Bulk refractive index differences were corrected by subtracting the response obtained from a blank-coupled surface. Blank injections are also subtracted (=double referencing). For calculation of apparent KD and other kinetic parameters the Langmuir 1:1 model was used.
For orientation: Surface plasmon resonance follows binding to a sensor surface in real time, without labels.

The target in assay [2] is T2, human Flag-tagged soluble TWEAK (amino acids 106-249) (human, UniProt O43508 106-249).
T2 construct: The sentence gives amino acids 106-249 without naming the entry; also called Human TWEAK; not shown: Flag tag
T2 sequence: T1 sequence
Nature of the assay: receptor interaction ELISA: Flag-TWEAK preincubated with antibody, then on coated human Fn14:Fc (competitor m21). The method, then:
96-well Maxisorp® plates (Nunc) were coated with 100 μl 1 μg/ml human Fn14:Fc (extracellular domain of human Fn14 (amino acids 1-75 of SEQ ID NO: 98) fused to Fc portion of human IgG1) in PBS per well for 1.5 h at room temperature and blocked with a solution of 5% FBS in PBS for 30 minutes at room temperature under shaking. […] After washing the Fn14-coated plate once with wash buffer (0.1% Tween® 20 in PBS), 100 μl of the TWEAK-antibody solution were transferred to each well and the plate was incubated for 1 h at room temperature, followed by four washes with wash buffer. Wells were filled with 100 μl of anti-FLAG-HRP detection antibody, diluted 1:5000 in blocking buffer, and incubated for 1 h at room temperature. After four more wash steps, the signal was developed by addition of 100 μl 3,3,5,5-Tetramethylbenzidine (TMB) solution for approximately ten minutes. The reaction was stopped by adding 100 μl of 1 N HCl, and absorbance measured at 450 nm (reference wavelength 620 nm).
(In general: An ELISA detects its analyte on a solid surface through an enzyme-linked reagent.)

For assay [3], the target named is T3, Biotinylated human soluble TWEAK (amino acids 99-249 of SEQ ID NO: 68) (human, UniProt O43508 99-249, biotinylated).
T3 construct: also called Human TWEAK
T3 sequence: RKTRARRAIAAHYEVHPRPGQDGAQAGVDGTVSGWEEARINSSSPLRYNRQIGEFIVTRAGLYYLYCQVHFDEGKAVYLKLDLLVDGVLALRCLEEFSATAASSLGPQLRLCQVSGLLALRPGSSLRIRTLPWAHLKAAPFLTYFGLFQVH
Nature of the assay: SPR (Biacore), biotinylated soluble TWEAK on streptavidin chip, 25 C. As to the method:
A Biacore 2000 instrument was used with a Biacore streptavidin coated sensor mounted into the system. The system buffer HBS-ET (10 mM HEPES pH 7.4, 150 mM NaCl, 1 mM EDTA, 0.05% Tween® 20) was used at a flow rate of 100 μl/min. The sample buffer was the system buffer. Biotinylated human soluble TWEAK (amino acids 99-249 of SEQ ID NO: 68) and biotinylated murine soluble TWEAK (amino acids 81-225 of SEQ ID NO: 69) was immobilized on different flow cells on the SA sensor at 150 RU each. The flow cell FC1 was used as a blank reference cell. Each antibody was injected into the system as an analyte at 100 nM at 100 μl/min for 2 min association time. The dissociation of the immunecomplexes were monitored for 5 min. The sensor surface was washed with HBS-ET for 10 seconds and regenerated using 2×2 minutes injections with 10 mM glycine pH 2.25. This procedure was done at 25° C. The kinetically rate limiting step of the complex dissociation phase in the interval [240 s-300 s] was taken to calculate the dissociation rate kd [1/s] (Biacore Evaluation Software 4.0). According to the equation t1/2 diss=ln(2)/(60×kd), the half-life of the immunocomplexes in minutes was calculated.

For assay [4], the target named is T1, human Tweak-Fc. Put plainly: SPR (BIAcore T100), TWEAK ligand (Tweak-Fc) amine-coupled on C1 chip, antibody as analyte, 25 C. As to the method:
as §1

The target of assay [5] is T3, Biotinylated human soluble TWEAK (amino …). Nature of the assay: SPR (Biacore), biotinylated soluble TWEAK on streptavidin chip, 37 C.
Assay [6] addresses T1, human Tweak-Fc. Put plainly: SPR (BIAcore T100), TWEAK ligand (Tweak-Fc) amine-coupled on C1 chip, antibody as analyte, 25 C, apparent KD, 1:1 model.
Assay [7] addresses T4, Human recombinant soluble TWEAK (Example 6) (human, UniProt O43508 99-249, limits assumed).
T4 sequence: T3 sequence
Put plainly: cell-based or functional assay.

Assay [8] concerns the target T5, Mouse soluble TWEAK (untagged, Example 5) (mouse, UniProt O54907 105-249, limits assumed).
T5 construct: also called Murine TWEAK
T5 sequence: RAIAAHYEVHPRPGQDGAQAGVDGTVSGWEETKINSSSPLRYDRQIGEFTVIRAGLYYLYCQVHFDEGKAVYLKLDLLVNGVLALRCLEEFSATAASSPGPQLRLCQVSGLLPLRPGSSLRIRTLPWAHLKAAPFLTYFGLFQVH
Put plainly: receptor interaction ELISA: mouse soluble TWEAK preincubated with antibody, then on coated mouse Fn14:Fc (competitor m22). As to the method: Briefly, Maxisorp plates were coated with mouse Fn14:Fc (extracellular domain of mouse Fn14 (amino acids 1-75 of SEQ ID NO: 98) fused to Fc portion of human IgG1) as described above for human Fn14:Fc, followed by blocking and washing. […] After 1 h of incubation at room temperature and four washes, biotinylated anti-mouse TWEAK antibody at 125 ng/ml in blocking buffer was added for 1 h at room temperature, followed by another four wash steps. The TWEAK antibody was detected by incubation with streptavidin-HRP, diluted 1:5000 in blocking buffer, for 30 minutes at room temperature. Signal was developed and absorbance measured as described above.

The target in assay [9] is T6, Recombinant human TWEAK (R&D Systems; Cat. #1090-TW/CF) (human, UniProt O43508 97-249, limits assumed).
T6 sequence: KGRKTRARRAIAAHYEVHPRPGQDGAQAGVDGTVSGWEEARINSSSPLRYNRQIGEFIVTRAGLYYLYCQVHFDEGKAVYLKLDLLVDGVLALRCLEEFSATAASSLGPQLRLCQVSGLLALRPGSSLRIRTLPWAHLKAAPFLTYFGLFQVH
Put plainly: cell-based or functional assay.

The target of assay [10] is T1, human Tweak-Fc. Put plainly: SPR (BIAcore T100), TWEAK ligand (Tweak-Fc) amine-coupled on C1 chip, bispecific antibody as analyte, 25 C, 1:1 model.
Text: (§2) The BIAcore® system is well established for the study of molecule interactions. SPR-technology is based on the measurement of the refractive index close to the surface of a gold coated biosensor chip. Changes in the refractive index indicate mass changes on the surface caused by the interaction of immobilized ligand with analyte injected in solution. The mass increases if molecules bind immobilized ligands on the surface, and vice versa, the mass decreases in case of dissociation of the analyte from the immobilized ligand (reflecting complex dissociation). SPR allows a continuous real-time monitoring of ligand/analyte binding and thus the determination of the association rate constant (ka), the dissociation rate constant (kd), and of the equilibrium constant (KD).
as §1

In assay [11] the target is T7, IL-17 A/F (human, UniProt Q16552 24-155; Q96PD4 31-163).
T7 construct: read as the heterodimer of IL17A and IL17F
Put plainly: SPR (BIAcore T100), antibody captured by anti-human F(ab')2, IL17 as analyte, 25 C, 1:1 model. As to the method:
(§3) Around 12000 resonance units (RU) of the capturing system (10 μg/ml goat anti human F(ab′)2; Order Code: 28958325; GE Healthcare Bio-Sciences AB, Schweden) were coupled on a CMS chip at pH 5.0 by using an amine coupling kit supplied by the GE Healthcare. The sample and system buffer was PBS-T (10 mM phosphate buffered saline including 0.05% Tween20) pH 7.4. The bispecific antibody was captured by injecting a 50 nM solution for 1 min at a flow of 10 μl/min. Association was measured by injection human IL17 in various concentrations in solution for 3 min at a flow of 30 μl/min starting with 50 nM in 1:1 dilutions. The dissociation phase was monitored for up to 5 min and triggered by switching from the sample solution to running buffer. The surface was regenerated by two times 60 sec. washing with a glycin pH 2.1 solution at a flow rate of 30 μl/min. Bulk refractive index differences were corrected by subtracting the response obtained from a goat anti human F(ab′)2 surface. Blank injections are also subtracted (=double referencing). For calculation of apparent KD and other kinetic parameters the Langmuir 1:1 model was used.

The target in assay [12] is T8, IL-17 F/F (human, UniProt Q96PD4 31-163).
T8 construct: read as the homodimer of IL17F
T8 sequence: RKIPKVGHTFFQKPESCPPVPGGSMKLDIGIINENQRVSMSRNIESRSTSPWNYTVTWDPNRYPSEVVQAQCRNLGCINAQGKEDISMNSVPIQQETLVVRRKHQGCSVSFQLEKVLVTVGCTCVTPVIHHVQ
Nature of the assay: SPR (BIAcore T100), antibody captured by anti-human F(ab')2, IL17 as analyte, 25 C. The method, then:
as §3

Assay [13] has as its target T1, human Tweak-Fc. Nature of the assay: SPR (BIAcore T100), TWEAK ligand (Tweak-Fc) amine-coupled on C1 chip, bispecific antibody as analyte, 25 C.
Text: as §2
(§4) Around 100 resonance units (RU) of TWEAK was immobilized on the C1 chip surface at pH 5.0 using an amine coupling kit supplied by the GE Healthcare. The sample and system buffer was PBS-T (10 mM phosphate buffered saline including 0.05% Tween20) pH 7.4. Association was measured by injection the bispecific antibody in various concentrations in solution for 3 min at a flow of 30 μl/min starting with 50 nM in 1:1 dilutions. The dissociation phase was monitored for up to 10 min and triggered by switching from the sample solution to running buffer. […]

The target of assay [14] is recombinant human IL-17 (Peprotech #200-17) (human, UniProt Q16552 20-155). Nature of the assay: cell-based or functional assay.
The target of assay [15] is human IL17A/A (human, UniProt Q16552 24-155, limits assumed). Put plainly: SPR (BIAcore T100), antibody captured by anti-human F(ab')2, IL17 as analyte, 25 C, apparent KD, 1:1 model. The method, then:
as §3

For assay [16], the target named is T1, human Tweak-Fc. Put plainly: SPR (BIAcore T100), TWEAK ligand (Tweak-Fc) amine-coupled on C1 chip, bispecific antibody as analyte, 25 C, apparent KD, 1:1 model.
Text: as §2, §4

Sequence of recombinant human IL-17 (Peprotech #200-17) (Q16552 20-155 limits assumed): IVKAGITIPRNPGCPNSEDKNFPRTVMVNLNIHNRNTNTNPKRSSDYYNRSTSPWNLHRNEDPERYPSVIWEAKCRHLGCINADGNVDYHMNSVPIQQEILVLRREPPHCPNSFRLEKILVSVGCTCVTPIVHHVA
T7 sequence (Q16552 24-155 limits assumed, one chain of several): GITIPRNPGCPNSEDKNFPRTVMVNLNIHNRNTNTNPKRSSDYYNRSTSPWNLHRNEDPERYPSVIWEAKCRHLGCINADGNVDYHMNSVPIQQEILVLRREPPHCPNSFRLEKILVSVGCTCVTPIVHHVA
Sequence of human IL17A/A (Q16552 24-155 limits assumed): as the sequence (Q16552 24-155 limits assumed, one chain of several) above

B1: Humanized <TWEAK> 305- antibody 27 (antibody, V domains shown)
VH: QVQLVQSGAEVKKPGSSVKVSCKASGFDFSTYYMSWVRQAPGQGLEWMGTVYVRQGTTYYASWLNGRVTITADESTSTAYMELSSLRSEDTAVYYCARGGYNYDDAFVIWGQGTLVTVSS
VL: DIQMTQSPSSVSASVGDRVTITCQASQNIYSNLAWYQQKPGKAPKLLIYTASYLASGVPSRFSGSGSGTDYTLTISSLQPEDFATYYCQTAYYNSRPDTVAFGGGTKVEIK
The term koff denotes the first-order rate constant of dissociation. Low readings indicate slow dissociation, high ones fast dissociation. As a reminder, the kon is the second-order rate constant of association. A low value points to slower complex formation. For orientation: IC50 means the concentration at which inhibition is half-maximal. Lower therefore signals greater potency. As for B1, in assay [1], the koff was determined as 5.71e-05 s⁻¹. The molecule further yielded a kon in assay [1] of 2.27e+06 M⁻¹ s⁻¹. In addition, the IC50 in [2] was found to be 2.3 ng/mL; in [8] it was 8.2 ng/mL. Besides, the “Biacore t/2 diss. [min] 25° C. human” value in assay [3] was 110 min. The “T½” value in assay [4] worked out at 3.37 h. Moreover, the “Biacore t/2 diss. [min] 37° C. human” value in assay [5] came to 147 min. Also, the Kd in assay [6] was determined as 25.2 pM. In assay [7], the “Inhibition of IL8-Secretion [ng/ml] (A375 cells)” value stood at 197 ng/mL. Moreover, in assay [9], the “IC50 (nM) per valency, Tweak induced HFLS proliferation (CellTiter Glo)” value was found to be 0.152 nM.

B2: Bispecific <Tweak-IL-17> #4 antibody (bispecific antibody, human IgG1, kappa)
heavy 1: not shown
heavy 2: not shown
light: DIVMTQSPLSLPVTPGEPASISCRSSQSLVHSNGDTYFHWYLQKPGQSPQLLIYKVSNRFSGVPDRFSGSGSGTDFTLKISRVEAEDVGVYYCSQTTHAPFTFGQGTKLEIKRTVAAPSVFIFPPSDEQLKSGTASVVCLLNNFYPREAKVQWKVDNALQSGNSQESVTEQDSKDSTYSLSSTLTLSKADYEKHKVYACEVTHQGLSSPVTKSFNRGEC
notes: Bivalent one-armed scFab format (WO 2011/117330), IgG1 knobs-into-holes
In the case of B2, in [10], the koff was 5.42e-05 s⁻¹ and the kon was found to be 426000 M⁻¹ s⁻¹. This molecule displayed a Kd in assay [11] of 270 pM. Moreover, the binding result in assay [12] is reported as “no binding (tested: IL17 injected starting with 50 nM)”. Besides, the “T½” value in [13] is 3.55 h. Also, in [14], the “IL-6 IC50 [nM] per valency (IL-17 induced cytokine production, HFLS-RA)” value was 1.72 nM and the “IL-8 IC50 [nM] per valency (IL-17 induced cytokine production, HFLS-RA)” value was 1.1 nM. Besides, the Kd in assay [15] is 150 pM. In addition, the Kd in [16] was 127 pM. Further, in assay [9], the “IC50 (nM) per valency, Tweak induced HFLS proliferation (CellTiter Glo)” value came out at 0.157 nM.

The values are drawn from patent US20150132307A1 (Hoffmann-La Roche, published 2015).
